# Data: patent publication US20230348603A1 (VERSEAU THERAPEUTICS, published 2023)
# B1: 16E10 mouse/human chimeric IgG4 (S228P) kappa (antibody, V domains shown)
# VH: QVQLQQSGAELVRPGTSVKISCKASGYTFTNYWLGWVKQRPGHGLEWIGDIYPGGGYTNYNEKFKGKATLTADTSSSTAYMQLSSLTSEDSAVYFCAKFYYYGSSYYFDSWGQGTTLTVSS
# VL: DIVLTQSPSSLSVSAGEKVTLSCKSSQSLLNSGNQENYLAWYQQKPGQPPKLLIYGASTRESGVPDRFTGSGSGTDFTLTISSVQAEDLAVYYCQNDHSYPLTFGAGTKLELKR
# B2: 15A06 mouse Fab (periplasmic extract) (Fab, V domains shown)
# VH: QVQMKQSGPSLVRPSQTLSLTCSVTGDSITSGYWNWIRKFPGDKFEYLGYISYSGFTYYNPSLKSRVSITRDTSKNQYYLQLHSVTTEDTATYYCASSKYGSSLGFPYWGQGTLVTVSA
# VL: DVVMTQTPLSLPVSLGDQASISCRSSQSLVHSNGNTYLHWYLQKPGQSPKLLIYKVSNRFSGVPDRFSGSGSGTDFTLKISRVEAEDLGVYFCSQSTHVPFTFGSGTKLEIK
# notes: mouse Fab with C-terminal His6-c-myc tag
# How the values were obtained:
# Human VSIG4-L-His [1] = biological target: T1, Human VSIG4-L-His (human, UniProt Q9Y279 20-283); assay: SPR (FJB)
# T1 construct: long isoform ECD with His tag; also called hVSIG4-L
# T1 sequence: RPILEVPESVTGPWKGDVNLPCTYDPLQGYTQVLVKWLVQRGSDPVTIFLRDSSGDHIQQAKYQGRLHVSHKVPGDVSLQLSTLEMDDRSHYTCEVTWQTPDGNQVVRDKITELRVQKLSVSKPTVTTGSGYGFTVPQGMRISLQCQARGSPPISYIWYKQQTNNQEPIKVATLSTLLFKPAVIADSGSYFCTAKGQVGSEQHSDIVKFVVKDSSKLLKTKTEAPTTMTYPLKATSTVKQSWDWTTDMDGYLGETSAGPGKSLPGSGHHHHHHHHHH
# [2] = biological target: T2, Cynomolgus Monkey VSIG4-L-His (cynomolgus monkey); assay: SPR (FJB)
# T2 construct: ECD with His tag; also called cyVSIG4-L; cyno VSIG4-L-His
# T2 chain: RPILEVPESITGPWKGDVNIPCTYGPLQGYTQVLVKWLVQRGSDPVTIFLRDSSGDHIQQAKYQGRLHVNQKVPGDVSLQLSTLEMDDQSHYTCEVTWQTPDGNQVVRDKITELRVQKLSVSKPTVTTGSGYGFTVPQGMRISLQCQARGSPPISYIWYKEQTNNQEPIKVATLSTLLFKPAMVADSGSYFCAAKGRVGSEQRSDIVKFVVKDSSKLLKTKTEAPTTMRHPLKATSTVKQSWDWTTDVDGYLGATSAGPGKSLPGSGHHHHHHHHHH
# Human VSIG4-L-Fc [3] = biological target: T3, Human VSIG4-L-Fc (human); assay: ligand blocking of C3b, IgG
# T3 construct: also called hVSIG4-L-Fc; hVSIG4-L
# Human VSIG4-L-Fc [4] = biological target: T3, Human VSIG4-L-Fc; assay: ligand blocking of iC3b, IgG
# Human VSIG4-L-Fc [5] = biological target: T3, Human VSIG4-L-Fc; assay: ELISA, IgG 50 nM on coated antigen;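 further: Mouse-human chimeric IgG4 antibodies incubated 1 h on plate-coated VSIG4 proteins, bound IgG detected with HRP-labelled anti-human IgG, irrelevant antibody and protein as specificity controls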
# Human VSIG4-S-Fc [6] = biological target: T4, Human VSIG4-S-Fc (human); assay: ELISA, IgG 50 nM on coated antigen;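 further: Mouse-human chimeric IgG4 antibodies incubated 1 h on plate-coated VSIG4 proteins, bound IgG detected with HRP-labelled anti-human IgG, irrelevant antibody and protein as specificity controls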
# T4 construct: short isoform ECD fused to human Fc1; also called hVSIG4-S
# [7] = biological target: T2, Cynomolgus Monkey VSIG4-L-His; assay: ELISA, IgG 50 nM on coated antigen;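 further: Mouse-human chimeric IgG4 antibodies incubated 1 h on plate-coated VSIG4 proteins, bound IgG detected with HRP-labelled anti-human IgG, irrelevant antibody and protein as specificity controls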
# Mouse VSIG4-His = biological target: T5, Mouse VSIG4-His (mouse); assay: ELISA, IgG 50 nM on coated antigen;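 further: Mouse-human chimeric IgG4 antibodies incubated 1 h on plate-coated VSIG4 proteins, bound IgG detected with HRP-labelled anti-human IgG, irrelevant antibody and protein as specificity controls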
# T5 construct: ECD with His tag; also called mVSIG4
# T5 chain: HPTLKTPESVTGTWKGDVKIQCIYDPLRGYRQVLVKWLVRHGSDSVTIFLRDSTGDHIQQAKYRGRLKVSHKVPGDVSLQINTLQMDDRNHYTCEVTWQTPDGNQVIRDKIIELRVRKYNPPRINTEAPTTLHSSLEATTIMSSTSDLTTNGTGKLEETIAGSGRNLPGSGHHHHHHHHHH
# Human VSIG4-L-His [8] = biological target: T1, Human VSIG4-L-His; assay: BLI, IgG on AHC sensor, antigen 100 nM
# [9] = biological target: T2, Cynomolgus Monkey VSIG4-L-His; assay: BLI, IgG on AHC sensor, antigen 100 nM
# Human VSIG4-L-His [10] = biological target: T1, Human VSIG4-L-His; assay: BLI (Octet), IgG on AHC sensor, antigen 100 nM
# Human VSIG4-S-His = biological target: T6, Human VSIG4-S-His (human, UniProt Q9Y279 20-283); assay: BLI (Octet), IgG on AHC sensor, antigen 100 nM
# T6 construct: short isoform ECD with His tag; also called hVSIG4-S; VISG4-S-His
# T6 sequence: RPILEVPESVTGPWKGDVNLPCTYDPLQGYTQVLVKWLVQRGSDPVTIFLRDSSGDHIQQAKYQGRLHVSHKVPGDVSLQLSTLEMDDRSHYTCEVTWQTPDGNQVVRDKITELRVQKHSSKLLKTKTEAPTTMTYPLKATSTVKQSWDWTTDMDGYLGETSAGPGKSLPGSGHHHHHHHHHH
# [11] = biological target: T2, Cynomolgus Monkey VSIG4-L-His; assay: BLI (Octet), IgG on AHC sensor, antigen 100 nM
# [12] = biological target: T7, Human VSIG4-L-CHO (human VSIG4 long isoform on CHO-K1 cells) (human, UniProt Q9Y279 20-399); assay: flow cytometry, CHO-K1 cells expressing hVSIG4-L
# T7 construct: also called hVSIG4-L (flow cytometry)
# T7 sequence: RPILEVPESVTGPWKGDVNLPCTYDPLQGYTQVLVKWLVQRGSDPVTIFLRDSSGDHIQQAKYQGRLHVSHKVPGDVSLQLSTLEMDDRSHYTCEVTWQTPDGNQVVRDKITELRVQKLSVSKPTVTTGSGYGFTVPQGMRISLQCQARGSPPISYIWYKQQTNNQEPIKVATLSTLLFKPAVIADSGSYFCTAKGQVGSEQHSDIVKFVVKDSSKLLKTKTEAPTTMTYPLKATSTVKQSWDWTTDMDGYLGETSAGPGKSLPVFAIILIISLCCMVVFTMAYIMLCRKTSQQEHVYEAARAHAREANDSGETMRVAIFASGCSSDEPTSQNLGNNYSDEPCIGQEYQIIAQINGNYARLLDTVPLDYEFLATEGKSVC
# Human VSIG4-L-Fc [13] = biological target: T3, Human VSIG4-L-Fc; assay: BLI binning on hVSIG4-L-Fc, competitor 12A08 first;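 further: normalized to binding of second antibody without first competitor antibody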
# Human VSIG4-L-Fc [14] = biological target: T3, Human VSIG4-L-Fc; assay: BLI binning on hVSIG4-L-Fc, competitor 12A12 first;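 further: normalized to binding of second antibody without first competitor antibody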
# Human VSIG4-L-Fc [15] = biological target: T3, Human VSIG4-L-Fc; assay: BLI binning on hVSIG4-L-Fc, competitor 13H11 first;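 further: normalized to binding of second antibody without first competitor antibody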
# Human VSIG4-L-Fc [16] = biological target: T3, Human VSIG4-L-Fc; assay: BLI binning on hVSIG4-L-Fc, competitor 14C05 first;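 further: normalized to binding of second antibody without first competitor antibody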
# Human VSIG4-L-Fc [17] = biological target: T3, Human VSIG4-L-Fc; assay: BLI binning on hVSIG4-L-Fc, competitor 14D12 first;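 further: normalized to binding of second antibody without first competitor antibody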
# Human VSIG4-L-Fc [18] = biological target: T3, Human VSIG4-L-Fc; assay: BLI binning on hVSIG4-L-Fc, competitor 15A06 first;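 further: normalized to binding of second antibody without first competitor antibody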
# Human VSIG4-L-Fc [19] = biological target: T3, Human VSIG4-L-Fc; assay: BLI binning on hVSIG4-L-Fc, competitor 15C03 first;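 further: normalized to binding of second antibody without first competitor antibody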
# Human VSIG4-L-Fc [20] = biological target: T3, Human VSIG4-L-Fc; assay: BLI binning on hVSIG4-L-Fc, competitor 15C04 first;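 further: normalized to binding of second antibody without first competitor antibody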
# Human VSIG4-L-Fc [21] = biological target: T3, Human VSIG4-L-Fc; assay: BLI binning on hVSIG4-L-Fc, competitor 16E03 first;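 further: normalized to binding of second antibody without first competitor antibody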
# Human VSIG4-L-Fc [22] = biological target: T3, Human VSIG4-L-Fc; assay: BLI binning on hVSIG4-L-Fc, competitor 16E10 first;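 further: normalized to binding of second antibody without first competitor antibody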
# Human VSIG4-L-Fc [23] = biological target: T3, Human VSIG4-L-Fc; assay: ligand competition ELISA (FJB), blocked ligand C3b
# Human VSIG4-L-Fc [24] = biological target: T3, Human VSIG4-L-Fc; assay: ligand competition ELISA (FJB), blocked ligand iC3b
# [25] = biological target: T7, Human VSIG4-L-CHO (human VSIG4 long …); assay: flow cytometry (FJB), 200 nM mAb, huVSIG4-L CHO-K1 cells
# [26] = biological target: T7, Human VSIG4-L-CHO (human VSIG4 long …); assay: flow cytometry (FJB), 200 nM mAb, huVSIG4-L CHO-K1 over parental CHO-K1
# Human VSIG4-L-Fc [27] = biological target: T3, Human VSIG4-L-Fc; assay: ELISA, Fab P.E. 1:5 on coated antigen;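 further: mouse Fab P.E. samples in 1% skimmed milk PBS, bound to antigen-coated wells for 1 h at room temperature, read as absorbance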
# Human VSIG4-S-Fc [28] = biological target: T4, Human VSIG4-S-Fc; assay: ELISA, Fab P.E. 1:5 on coated antigen;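 further: mouse Fab P.E. samples in 1% skimmed milk PBS, bound to antigen-coated wells for 1 h at room temperature, read as absorbance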
# [29] = biological target: T2, Cynomolgus Monkey VSIG4-L-His; assay: ELISA, Fab P.E. 1:5 on coated antigen;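 further: mouse Fab P.E. samples in 1% skimmed milk PBS, bound to antigen-coated wells for 1 h at room temperature, read as absorbance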
# Human VSIG4-L-Fc [30] = biological target: T3, Human VSIG4-L-Fc; assay: blocking ELISA, biotin-iC3b on coated hVSIG4-L-Fc
# Human VSIG4-L-His [31] = biological target: T1, Human VSIG4-L-His; assay: SPR (Biacore T200), Fab P.E. 1:5 over immobilised antigen
# T3 sequence (chain, as listed by the source limits assumed): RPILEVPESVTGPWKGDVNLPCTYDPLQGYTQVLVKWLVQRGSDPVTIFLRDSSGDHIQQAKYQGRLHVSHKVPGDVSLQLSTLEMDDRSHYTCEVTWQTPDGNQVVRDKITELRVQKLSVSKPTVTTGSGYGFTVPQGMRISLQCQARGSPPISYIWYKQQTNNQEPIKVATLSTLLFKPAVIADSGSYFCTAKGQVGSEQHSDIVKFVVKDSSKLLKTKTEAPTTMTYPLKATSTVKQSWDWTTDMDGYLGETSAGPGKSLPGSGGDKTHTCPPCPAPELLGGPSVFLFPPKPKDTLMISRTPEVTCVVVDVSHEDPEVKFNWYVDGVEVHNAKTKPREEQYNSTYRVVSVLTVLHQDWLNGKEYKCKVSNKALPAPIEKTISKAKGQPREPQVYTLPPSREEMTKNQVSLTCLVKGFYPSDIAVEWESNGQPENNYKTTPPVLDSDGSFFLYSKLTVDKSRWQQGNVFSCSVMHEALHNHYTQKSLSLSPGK
# T4 sequence (chain, as listed by the source limits assumed): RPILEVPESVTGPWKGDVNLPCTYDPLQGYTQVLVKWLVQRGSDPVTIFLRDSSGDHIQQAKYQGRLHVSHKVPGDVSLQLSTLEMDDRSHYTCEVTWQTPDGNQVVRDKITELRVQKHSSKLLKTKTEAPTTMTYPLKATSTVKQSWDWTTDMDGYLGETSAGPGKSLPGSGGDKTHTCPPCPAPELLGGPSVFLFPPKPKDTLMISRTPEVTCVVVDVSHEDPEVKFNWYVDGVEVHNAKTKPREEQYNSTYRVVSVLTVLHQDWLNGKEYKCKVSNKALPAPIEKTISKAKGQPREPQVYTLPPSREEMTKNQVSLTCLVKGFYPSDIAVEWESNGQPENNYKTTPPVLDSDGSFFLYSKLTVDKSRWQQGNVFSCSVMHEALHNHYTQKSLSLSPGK
binder,measurement,setting,value
B1,Kd,Human VSIG4-L-His [1],66.1 nM
same,Kd,[2],1.3 nM
same,Percent Blocking C3b,Human VSIG4-L-Fc [3],33%
same,Percent Blocking iC3b,Human VSIG4-L-Fc [4],72%
same,ELISA OD450,Human VSIG4-L-Fc [5],4.44 OD450
same,ELISA OD450,Human VSIG4-S-Fc [6],2.04 OD450
same,ELISA OD450,[7],4.5 OD450
same,ELISA OD450,Mouse VSIG4-His,0.048 OD450
same,KD relative to parental chimera,Human VSIG4-L-His [8],1 fold
same,KD relative to parental chimera,[9],1 fold
same,Kd,Human VSIG4-L-His [10],68.5 nM
same,Kd,Human VSIG4-S-His,75.3 nM
same,Kd,[11],37.6 nM
same,EC50,[12],1 nM
same,normalized maximum binding nm shift,Human VSIG4-L-Fc [13],0 normalized
same,normalized maximum binding nm shift,Human VSIG4-L-Fc [14],0.25 normalized
same,normalized maximum binding nm shift,Human VSIG4-L-Fc [15],0.65 normalized
same,normalized maximum binding nm shift,Human VSIG4-L-Fc [16],0.74 normalized
same,normalized maximum binding nm shift,Human VSIG4-L-Fc [17],0.69 normalized
same,normalized maximum binding nm shift,Human VSIG4-L-Fc [18],0.77 normalized
same,normalized maximum binding nm shift,Human VSIG4-L-Fc [19],0.88 normalized
same,normalized maximum binding nm shift,Human VSIG4-L-Fc [20],0.89 normalized
same,normalized maximum binding nm shift,Human VSIG4-L-Fc [21],0.1 normalized
same,normalized maximum binding nm shift,Human VSIG4-L-Fc [22],0.15 normalized
same,IC50,Human VSIG4-L-Fc [23],0.7 nM
same,IC50,Human VSIG4-L-Fc [24],3.6 nM
same,Binding (200 nM) MFI,[25],14700 MFI
same,Binding (200 nM) Fold-Over-Parental,[26],50 fold
B2,ELISA OD450,Human VSIG4-L-Fc [27],4.42 OD450
same,ELISA OD450,Human VSIG4-S-Fc [28],0.06 OD450
same,ELISA OD450,[29],0.05 OD450
same,Percent Blocking iC3b,Human VSIG4-L-Fc [30],1.4%
same,koff,Human VSIG4-L-His [31],0.0015 s⁻¹
